The values below come from patent US20190338048A1.

Test [1] deals with CR8071 lambda light chain K129T_V133D (L1 of designs 3102 and 3109, system C). Nature of the test: SMCA LC-MS.
Test [2] shares this target. Nature of the test: SMCA LC-MS. This is another data set of the same source.
For test [3] the target is unchanged. Nature of the test: SMCA LC-MS. The source holds these as a separate data set.
The target in test [4] is Design 3947 L2: SGN-CD19a kappa light chain S131K_S176K. Nature of the test: SMCA: H1, L1, H2, L2 co-expressed, protein A, LC-MS.
Test [5] has the same target. Described as above. This is another data set of the same source.
For test [6] the target is unchanged. The test is described as above. The source holds these as a separate data set.
The target of test [7] is Design 3951 L2: SGN-CD19a kappa light chain S121K_S131K_S176K. The description is as above.
The target is the same in test [8]. The description is as above. This is another data set of the same source.
Test [9] shares this target. The test is described as above. This is another data set of the same source.
Test [10] has as its target Pertuzumab kappa light chain V133G_S176D (L2), N-terminal HA tag. In words: LCCA, SPR of light chain tags.
Test [11] has as its target Pertuzumab kappa light chain V133G_S176D_T178D (L2), N-terminal HA tag. In words: LCCA, SPR of light chain tags.
In test [12] the target is CAT-2200 lambda light chain S176K_Y178K (L1), N-terminal FLAG tag. Nature of the test: LCCA, SPR of light chain tags.
Test [13] deals with CAT-2200 lambda light chain S176K_Y178L (L1), N-terminal FLAG tag. Nature of the test: LCCA, SPR of light chain tags.
Test [14] deals with CAT-2200 lambda light chain S176K_Y178R (L1), N-terminal FLAG tag. Nature of the test: LCCA, SPR of light chain tags.
Test [15] addresses Pertuzumab kappa light chain V133G_S176D (L2), N-terminal HA tag. In words: LCCA, SPR of light chain tags. This is another data set of the same source.
For test [16] the target is unchanged. In words: LCCA, SPR of light chain tags. This is another data set of the same source.
Test [17] deals with CAT-2200 lambda light chain S176K_Y178R (L1), N-terminal FLAG tag. In words: LCCA, SPR of light chain tags. The source holds these as a separate data set.
For test [18], the target named is Pertuzumab kappa light chain Q124E_V133D (L2), N-terminal HA tag. In words: LCCA, SPR of light chain tags.
The target of test [19] is Pertuzumab kappa light chain V133D (L2), N-terminal HA tag. In words: LCCA, SPR of light chain tags.
The target of test [20] is Pertuzumab kappa light chain Q124E_V133D (L2), N-terminal HA tag. Nature of the test: LCCA, SPR of light chain tags. The source holds these as a separate data set.
Test [21] deals with Pertuzumab kappa light chain V133D (L2), N-terminal HA tag. Nature of the test: LCCA, SPR of light chain tags. This is another data set of the same source.
The target of test [22] is Pertuzumab kappa light chain Q124E_V133D (L2), N-terminal HA tag. In words: LCCA, SPR of light chain tags. This is another data set of the same source.
In test [23] the target is CAT-2200 lambda light chain S176K_Y178R (L1), N-terminal FLAG tag. Nature of the test: LCCA, SPR of light chain tags. This is another data set of the same source.
In test [24] the target is Pertuzumab kappa light chain S131D_V133G_T178F (L2), N-terminal HA tag. In words: LCCA, SPR of light chain tags.
Test [25] has as its target Pertuzumab kappa light chain S131E_V133G_T178F (L2), N-terminal HA tag. In words: LCCA, SPR of light chain tags.
The target in test [26] is Pertuzumab kappa light chain S176D_T178E (L2), N-terminal HA tag. In words: LCCA, SPR of light chain tags.
The target of test [27] is Pertuzumab kappa light chain S176E_T178E (L2), N-terminal HA tag. In words: LCCA, SPR of light chain tags.
Test [28] deals with CAT-2200 lambda light chain Y178K (L1), N-terminal FLAG tag. Nature of the test: LCCA, SPR of light chain tags.
Test [29] deals with Pertuzumab kappa light chain S176D_T178E (L2), N-terminal HA tag. In words: LCCA, SPR of light chain tags. This is another data set of the same source.
For test [30], the target named is Pertuzumab kappa light chain S176E_T178E (L2), N-terminal HA tag. Nature of the test: LCCA, SPR of light chain tags. The source holds these as a separate data set.
The target of test [31] is Pertuzumab kappa light chain S131D_V133G_T178F (L2), N-terminal HA tag. In words: LCCA, SPR of light chain tags. This is another data set of the same source.
The target of test [32] is Pertuzumab kappa light chain S131E_V133G_T178F (L2), N-terminal HA tag. In words: LCCA, SPR of light chain tags. The source holds these as a separate data set.
Test [33] has as its target Pertuzumab kappa light chain S176D_T178E (L2), N-terminal HA tag. Nature of the test: LCCA, SPR of light chain tags. This is another data set of the same source.
For test [34], the target named is Pertuzumab kappa light chain S176E_T178E (L2), N-terminal HA tag. Nature of the test: LCCA, SPR of light chain tags. The source holds these as a separate data set.
The target in test [35] is Pertuzumab kappa light chain S131D_V133G_T178F (L2), N-terminal HA tag. Nature of the test: LCCA, SPR of light chain tags. The source holds these as a separate data set.
Test [36] has as its target Pertuzumab kappa light chain S131E_V133G_T178F (L2), N-terminal HA tag. In words: LCCA, SPR of light chain tags. This is another data set of the same source.
Test [37] deals with Pertuzumab kappa light chain S176D_T178E (L2), N-terminal HA tag. Nature of the test: LCCA, SPR of light chain tags. This is another data set of the same source.
Test [38] concerns the target Pertuzumab kappa light chain S176E_T178E (L2), N-terminal HA tag. In words: LCCA, SPR of light chain tags. This is another data set of the same source.
In test [39] the target is CAT-2200 lambda light chain S176K_Y178L (L1), N-terminal FLAG tag. Nature of the test: LCCA, SPR of light chain tags. This is another data set of the same source.
Test [40] has as its target CAT-2200 lambda light chain S176K_Y178R (L1), N-terminal FLAG tag. Nature of the test: LCCA, SPR of light chain tags. This is another data set of the same source.
Test [41] addresses CAT-2200 lambda light chain S176K_Y178K (L1), N-terminal FLAG tag. Nature of the test: LCCA, SPR of light chain tags. This is another data set of the same source.
Test [42] deals with CAT-2200 lambda light chain S176K_Y178L (L1), N-terminal FLAG tag. In words: LCCA, SPR of light chain tags. This is another data set of the same source.
Test [43] addresses CAT-2200 lambda light chain S176K_Y178R (L1), N-terminal FLAG tag. Nature of the test: LCCA, SPR of light chain tags. This is another data set of the same source.
Test [44] concerns the target Pertuzumab wild-type kappa light chain with N-terminal FLAG tag. In words: SMCA: H1, H2, L1, L2 co-expressed in CHO-3E7.
Test [45] deals with SGN-CD19a kappa light chain Q124K_V133A_T178R (L2 of design 3109, systems B and C). Nature of the test: SMCA LC-MS.
The target is the same in test [46]. In words: SMCA LC-MS. The source holds these as a separate data set.
For test [47] the target is unchanged. Nature of the test: SMCA LC-MS. The source holds these as a separate data set.

Like-named read-outs stand apart in the source and are kept apart here.

For “CR8071 heavy chain L143K (H1 of designs 3102 and 3109, system C)”, the % H1L1 Pairing in test [1] turned out to be 88.7%; in test [2] it was 84%. Further, the Change in % H1L1 Pairing with respect to wild type stood at 6.4% in test [1] and 15.9% in test [3].
For “Design 3947 H2: SGN-CD19a heavy chain K145T_S186E”, the figures for the % H2L2 Pairing in [4] and in test [5] were 70.3% and 94.5%, respectively. For the same substance, the Change in % H2L2 Pairing with respect to wild type in test [5] is 23.2%; in [6], 16.1%.
For the substance “Design 3951 H2: SGN-CD19a heavy chain K145T_S186E_K228D”, the % H2L2 Pairing in test [7] worked out at 77.5%; in test [8], 97.1%. For the same substance, the Change in % H2L2 Pairing with respect to wild type in [8] is 25.8%; in test [9] it was 23.3%.
On to “Pertuzumab Fab heavy chain L124R (H2), ABD2-His6 tagged”, for which the H2L2:H2L1 normalized median ratio in [10] is 85%; in test [11] it was 61%; in test [12], 16%; in [13] it was 26%; in test [14] it was 15%; in [15], 84%. The H2L2:H2L1 normalized median ratio in test [16] was determined as 74%; in [17], 39%. Moreover, the H2L2:H2L1 normalized median scalar value ln(r1/f1) in [10] worked out at 1.75; in test [11], 0.43; in [15] it was 1.63; in test [16], 1.06.
Turning to “Pertuzumab Fab heavy chain L143K (H2), ABD2-His6 tagged”, the H2L2:H2L1 normalized median ratio in test [18] amounted to 88%; in test [19] it was 80%; in [12], 14%; in test [14], 12%; in test [20], 86%; in [21], 77%. Further, the H2L2:H2L1 normalized median ratio in [22] was 93%; in [23], 20%. Further, the H2L2:H2L1 normalized median scalar value ln(r1/f1) stood at 1.95 in test [18]; 1.39 in test [19]; 1.78 in test [20]; 1.2 in [21]; 2.64 in [22].
With “Pertuzumab Fab heavy chain S188K (H2), ABD2-His6 tagged”, the H2L2:H2L1 normalized median ratio in [24] amounted to 89%; in test [26], 90%; in test [27], 95%; in test [12], 14%; in test [13] it was 14%; in test [14], 9%. The H2L2:H2L1 normalized median ratio in test [28] was 20%; in [29] it was 80%; in test [31], 86%; in test [33], 86%; in [35], 85%; in test [37], 86%. In addition, the H2L2:H2L1 normalized median ratio in test [38] stood at 95%; in [39], 5%; in test [40], 5%; in test [41], 14%; in [42], 15%; in [43] it was 11%. The H2L2:H2L1 normalized median scalar value ln(r1/f1) in test [24] worked out at 2.09; in test [25], 2.35; in test [26] it was 2.16; in test [27] it was 2.87; in test [29] it was 1.41; in test [30], 2.67. For the same substance, the H2L2:H2L1 normalized median scalar value ln(r1/f1) in test [31] was 1.85; in test [32], 2.77; in [33] it was 1.83; in test [34], 2.75; in [35], 1.77; in test [36] it was 2.17. The H2L2:H2L1 normalized median scalar value ln(r1/f1) came to 1.78 in [37] and 2.96 in test [38].
Turning to “Pertuzumab wild-type full-length IgG1 heavy chain (heterodimeric Fc) (from UniProt P0DOX5 2-448)”, the % H2L2 Pairing (over all H2 species) in test [44] came to 79.9%.
As for “SGN-CD19a heavy chain L124W_L143E_K145T_Q179E (H2 of design 3109, systems B and C)”, the % H2L2 Pairing in test [45] was 97.1%; in test [46], 99.6%. Also, the Change in % H2L2 Pairing with respect to wild type in test [45] was 42.9%; in test [47], 28.3%.
